The values below come from the DeepSol protein solubility set.

This data set can be described thus: soluble on expression in E. coli; label from the status in PepcDB or PDB records.
For the sequence “MKKALPNTKVTVKLRRSNYKEEWYLIIESYPVYKRGSKRASRVVESINRTISTPIWDKSSIARILPDGTFNYKPKRDLNGIIQCRSTIDQEACIYADNVRKLRQHEYDSAILYTDKENEIAAQNERSEQDFIKYFNRIISTRHPNSSDSIIVNWRRVGELLKMYSQGQPIPFKAISVKLLEDIKMFLLRAPMGGNKKGTISQNTASTYFSILKAGLKQAFIDEYLTVDISAKVKGITNIEKPRVALTMNEVQMLVDTPCKDDVLKRAFLFSILTGLRHSDIQTLKWKQIQQTSKGTWQAVVIQQKTKRPDYKPVIQQALQLCGIRPDDDEALVFEGLTDASWISRPLKVWIEASGIKKHITF”, the “soluble on expression in E. coli” value is recorded as “not soluble”.
As for “MARIRVVQGDITEFQGDAIVNAANNYLKLGAGVAGAILRKGGPSIQEECDRIGKIRVGEAAVTGAGNLPVRYVIHAAVLGDEPASLETVRKATKSALEKAVELGLKTVAFPLLGTGVGGLPVEAVARVMLEEIKKAPDTLEVTLYGYREEDAEAIRRAL”, the “soluble on expression in E. coli” value is recorded as “soluble”.
For the sequence “MGHHHHHHSHMSSMQRRAFVALGLMAMLAACSPAKKEDAAAGQTPIKLATDWRAQAELGGYYQALATGEYKKRGLDVTLIQGGPAVNVPQLLATGAVDVGVGSNSFIIMNLAKENAPVKAVAAFMQKDPQVLIAHPDQGINGIADMKGRPILLSDASVTAFWVWLKAKYGFTDDQVRKYNYSSAPFLADKRVVQQGYATSEPYLIEKEGKIKPAVFLLADSGYPAYASFALVPDSLIAKNPAAVQAFVEATAAGWTSYLYGDPKPGDAAILKDNPEMTQDVLDQAREKMRSYGIVSANGGRGDIGQMTDARWAEFFKVASEQGVYPADMDYKKAYTLQFLPKGP”, the “soluble on expression in E. coli” value was “not soluble”.
In the case of “MLRSLVQNPKVRARVLERVDEFRLNNLSNEEVWFRELTLCLLTANSSFISAYQALNCLGQKIYYANEEEIRNILKSCKYRFYNLKAKYIIMAREKVYGRLKEEIKPLADEDQQLARERLLNIKGIGMQEASHFLRNVGYFDLAIIDRHIIDFMRRIGAIGETNVKQLSKSLYISFENILKSIASNLNMSVGILDLFIWYKETNTIVK” it was “soluble”; in that of “MVEQIKDKLGRPIRDLRLSVTDRCNFRCDYCMPKEVFGDDFVFLPKNELLTFDEMARIAKVYAELGVKKIRITGGEPLMRRDLDVLIAKLNQIDGIEDIGLTTNGLLLKKHGQKLYDAGLRRINVSLDAIDDTLFQSINNRNIKATTILEQIDYATSIGLNVKVNVVIQKGINDDQIIPMLEYFKDKHIEIRFIEFMDVGNDNGWDFSKVVTKDEMLTMIEQHFEIDPVEPKYFGEVAKYYRHKDNGVQFGLITSVSQSFCSTCTRARLSSDGKFYGCLFATVDGFNVKAFIRSGVTDEELKEQFKALWQIRDDRYSDERTAQTVANRQRKKINMNYIGG”, “soluble”.
In the case of “MGSDKIHHHHHHMTENKPSEQTNELKDLVVEKEFNQTLDDLLANPFGSDGESAASIVNNETDAAPRLVDMLTETNKKQALELSKQIEPGNQAAILGYGAPAQAKLHDFSHSMLAHVQKQDVGPIGDIISDLMYRLQEADPDELAARNKNVFTKMFHRVKQSINEITSKYQKIGTQIDRIALKLEHSKKRLMEDNSFLEQLYDKNKDYFQALNIYIAAGELKLEEINTKMLPELRKKAEQTGDQMDYQEVNDLTQFADRLDKRVYDLRLSRQITIQQAPQIRLIQNTNQALAEKIQSSIMTAIPLWKNQVAIALTLLRQQQAVAAQRQVSETTNELLKRNADMLKTNAIETARENERGIVDIETLKETQSSLIETLQETLKIQQEGRAKRAVAEKELVTMEQELKERLLEMK” it was “not soluble”; in that of “MANDEEFFIVRCRGPSSYRESVYKYLTGQPSDWNRNSVFLRNMHVGRAKNVKEIFNCILQTQPLPVVQPCHPVRQPRESFYSSHEHDPMDEVLLQEVKEEAHSLAFKGIPIETKGPTPSSTIMNPEVTLRDVLTFHKNIKRRPQETKPAKFDFSAMPSTSRLPPTSPKRYRQFAPPPISMKQSPKICAKTVSCPSTSEVKSPPKKMIIQKIQKHQEAPKPAKVPKIKGEKKKKDGRQDEQEEIDIELKLSKSTVSSQTLKRHNISFERKPQRGI”, “not soluble”.
With “MPQTSAWQLNDTTARPPPPPPPPGSEAGGSDGASMNGANTLPRVSKRVSAAGKTSNIPRFKRPHLPHSTRPLSAVLTSSSSPVVHRKISPSSSAPSTSSAHRRFSHLPQQHFHHHIHHNQTAVISEETLTTPRASTLNLNQTSVFPTAISQGSMPNSGTNTAEASMTSSVCAMETEGTNGDELAESRDMVSEMQRRCRIGPSGYPHLLKAKRLRFYRNGDQYFKGIQYALQSDRVKSMQPLMEDLMKTVICDSTALPHGIRHIFTIDGAQRITSVDQFEDGGGYVCSSTDAFKPVDYSRAAEPSWRLTLANRYNRHLETKKLALSVVEPCHENTDFVFPRIIKVIRNGVKPRRISRHLLNKKTARSFDQVLRDLTFVVKLDSGAIRKLFTLSGRPVLSLQDFFRDDDVFVAYGGNEKMAADDLLVASEEHKSVGSGTSSNMRRTSRRSTMPNRNESLRHDRSGSVIPDQDQQRLPPLLDEKFQLVRLIGDGNTAVVYEVIDKTNNDDRKAMKVIARENVIGKEHLIEMELAILQKIDHTFIVQLYDHWFVDDSYYLSLELIEMGDLFEHLRIVRRVPERDAVRMMTCLGQALEYIHELGIVHRDVKLENLLIVKDEFGELGVKLADFGLAAEMPKDFGVLSTICGTPTYVAPEVLNKTGYGCKVDIWAAGVILYAILVGFPPFQSSDGSEQDLFSAIMSGEFSFPSPSWDDVSWSVRHLIMCLIHTDPFHRYSAGELLNDEWMVNLGDVDPEYEEWAHRFVQSKMHVEEEQETPYEYYTSRRTSMDELSESAAVEFSYSCES”, the “soluble on expression in E. coli” value is “not soluble”.
As for “MSLSLDTAREAVQKKPLLYDKGGEEHYNVISAFIKSMRGSDPDGALYWLARMIEAGEDPIFILRRMVILASEDIGNADPRALQVAVTALQGFQLVGMPEGRIIIGQAVTYLATAPKSNASYVGIDAALAEVRKSGALPVPLHIRNAPTRLMKDLGYGTGYRYAHDYAEGYVAQDYLPDQIKGRKYYDPTGHGYEKSIKERMEWLKGKKEGHHHHHH”, the “soluble on expression in E. coli” value is reported as “not soluble”.
Take “MGSDKIHHHHHHMRTPTCDITTHERWFGAFTAPYLEEGPEHVGPVRLKIEHTHHVLSNARSIVDSEDFSPLVQRAALLAALYHDTGRFPQYRRWRTFSDPRSVNHALLGGRTLREAGALDDEPVEVRRLVLGAVVMHNRFRVPSGIPDDARTVTDVVRDADKLDIFRVMAPHLAPGAERDKVVVLHVEDAPGKWSPVIVADVLAGRVASYADLRYVNDFRLLLGTWVRDLRFPASRRMLAASGLVENILSALPASDDIARARTRILSDLADAARGRGGA”: the “soluble on expression in E. coli” value is “not soluble”.
As for “SQLNPTVMISGSSANNHRFDNLVAILNRQSTTHSLLRVQVNEDNSISYSGRIRPNDSQPYIVIGFQNNSDGYANIKRQAKWLEIAMKFLQKRYHFNHFNAFGHSNGGLDWTIYLEKYFNQKSSTIGTLMTVGSPFNFSEKSESNRTQMLTDLIKNRSKLPRDMTVYSIAGTETYNDDGIVPIESVLSGKYVFQKNVHSYTQITVSGNDSEHSDLPTNPQIVQLIQRDILDGRGQKQSSNPVFNNH”, the “soluble on expression in E. coli” value is listed as “not soluble”.
Regarding “MGSDKIHHHHHHMSLEGLSINFATVRQGGNFGAIVDACLAHGITAISPWREQVHGVGLAEAARIVEQNGLRLSGHCRGGFFPAIDADGRRRAIEDNKRAVDEAAAMKADCLVLVVGGLPAGSRDLKGARQMVEDGMAKLLPYARAAGVPLAIEPLHPFYAAERACFNTLKQSLDLCDRLGAGTGVAIDVYHVWWDPELEEQVARAGRNGQILAHHICDWLVPTTDPLNDRGMMGDGVIDLKAFRAMIEAAGFHGPQEVEIFSHRWQARPMDEVLATVVERFKTVC”, the “soluble on expression in E. coli” value is “not soluble”.
In the case of “MPWRNKEASSPSSANPPLEALQSPSFRGNMADKLKDPSTLGFLEAAVKISHTSPDIPAEVQMSVKEHIMRHTRLQRQTTEPASSTRHTSFKRHLPRQMHVSSVDYGNELPPAAEQPTSIGRIKPELYKQKSVDGEDAKSEATKSCGKINFSLRYDYETETLIVRILKAFDLPAKDFCGSSDPYVKIYLLPDRKCKLQTRVHRKTLNPTFDENFHFPVPYEELADRKLHLSVFDFDRFSRHDMIGEVILDNLFEASDLSRETSIWKDIQYATSESVDLGEIMFSLCYLPTAGRLTLTVIKCRNLKAMDITGYSDPYVKVSLLCDGRRLKKKKTTIKKNTLNPVYNEAIIFDIPPENMDQVSLLISVMDYDRVGHNEIIGVCRVGITAEGLGRDHWNEMLAYPRKPIAHWHSLVEVKKSFKEGNPRL”, the “soluble on expression in E. coli” value is “not soluble”.
As for “MSLPKEEILTGPAVIKIVSTYMGPEHVELVQKALTYAEKAHEGQVRQSGEPYIIHPIQVAGILAELHMDPHTVATGFLHDVVEDTDVTLDDLKEEFGEDIAMLVDGVTKLGKIKYKSHEEQLAENHRKMLLAMAQDLRVIMVKLADRLHNMRTLKHLREDKQRRIAQETLEIYAPLAHRLGISRIKWELEDTALRYINPNQYYRIVNLMQSKRDEREAYVAEAVEDIRLATEDLEIYAEIYGRPKHIYSIYRKMKDQKKQFNEIYDLLAIRVIVDSIKDCYAVLGAIHTRWTPMPGRFKDYIAMPKANMYQSIHTTVIGPKGNPVEVQIRTHEMHQIAEFGVAAHWAYKEGKAEKIETDELTKQVDWFHEIIELQDESYDASEFMQGVKEDIFSDKVYVFTPSGDVTELPKGSGPLDFAYSIHTEIGNKTTGAKVNGKMVQLDYVLKNGDIIEVLTSPNSFGPSRDWLKMVKTSKAKNKIKRFFKEQDREDNIIKGHDAVIKYMTEIGFTPKEFLTKNKMAEVLDKFKFQTEDDLFAAVGYGEVSAQVVCNRLTEKERREQELERQRQEAEELLNQPAKKESEKMKVRHEGGIVIQGVDNLLIRLSRCCNPVPGDEIVGYITKGRGVSIHRADCPNVQHQEELAQRLIEVEWEDTEHSRKEYAADLEIYGYDRSGLLSDVLQVISSMTKNLVGVEARPSKDKMAQIHVTVKIQNLSHLKTIVDKIKSVPDVYSVRRTNGEGHHHHHH”, the “soluble on expression in E. coli” value is reported as “soluble”.
Consider “MGHHHHHHMPVVDSDGDAVQLNLGGNYPLYTIQSAAIGFRGGLSTLRKDACKSYVYEAPETDRGLPVGFSASATSQPVMQLGSRYKFSFSMPVPLICDTAWSIGKSETNGGISFQPITAGDYFYLNNFSWFEARSTEETGVYKLAACSCEFCKIACPEVGSFNVNGRTLLGIGGEHFTVQFQKFD”, for which the “soluble on expression in E. coli” value was “soluble”.
